According to patent US20260217793A1 (Chugai, published 2026):
Where a chain is given by its changes, count along the chain named.

T1: FcγRIIa type R extracellular domain with C-terminal His tag (human, UniProt P12318 34-217)
T1 sequence (looked up): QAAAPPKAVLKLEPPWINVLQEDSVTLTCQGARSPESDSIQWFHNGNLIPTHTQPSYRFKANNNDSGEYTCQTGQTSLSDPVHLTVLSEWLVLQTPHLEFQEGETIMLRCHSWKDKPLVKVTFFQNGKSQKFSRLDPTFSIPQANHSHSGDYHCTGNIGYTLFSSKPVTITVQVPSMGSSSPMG

T2: FcγRIIb extracellular domain with C-terminal His tag (human, UniProt P31994 43-217)
T2 sequence (looked up): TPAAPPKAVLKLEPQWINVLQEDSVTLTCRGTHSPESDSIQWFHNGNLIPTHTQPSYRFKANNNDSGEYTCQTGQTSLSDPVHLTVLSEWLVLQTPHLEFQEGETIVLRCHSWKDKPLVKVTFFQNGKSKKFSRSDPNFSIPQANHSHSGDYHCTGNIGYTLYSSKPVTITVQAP

T3: FcγRIIa type H extracellular domain with C-terminal His tag (human, UniProt P12318 34-217)
T3 sequence (looked up): T1 sequence (looked up) with R134H

T4: human FcγRIIa type R (Arg131) extracellular domain with C-terminal His tag (human, UniProt P12318 34-217)
T4 sequence (looked up): T1 sequence (looked up)

T5: human FcγRIIb extracellular domain with C-terminal His tag (human, UniProt P31994 43-217)
T5 sequence (looked up): T2 sequence (looked up)

T6: human FcγRIIa type H (His131) extracellular domain with C-terminal His tag (human, UniProt P12318 34-217)
T6 sequence (looked up): T1 sequence (looked up) with R134H

B1: IL6R-BP541/IL6R-L (antibody, human IgG1, kappa)
heavy: QVQLQESGPGLVKPSETLSLTCAVSGHSISHDHAWSWVRQPPGEGLEWIGFISYSGITNYNPSLQGRVTISRDNSKNTLYLQMNSLRAEDTAVYYCARSLARTTAMDYWGEGTLVTVSSASTKGPSVFPLAPSSKSTSGGTAALGCLVKDYFPEPVTVSWNSGALTSGVHTFPAVLQSSGLYSLSSVVTVPSSSLGTQTYICNVNHKPSNTKVDKKVEPKSCDKTHTCPPCPAPDLLGDDSVFLFPPKPKDTLMISRTPEVTCVVVDVSDEDGEVQFNWYVDGVEVHNAKTKPREEQDNSTYRVVSVLTVLHQDWLNGKEYKCKVSNKALPRPIEKTISKAKGQPREPQVYTLPPSRDELTKNQVSLTCLVKGFYPSDIAVEWESNGQPENNYKTTPPVLDSDGSFFLYSKLTVDKSRWQQGNVFSCSVMHEALHNHYTQESLSLSP
light: not shown
B2: IL6R-BP558/IL6R-L (antibody, human IgG1, kappa)
heavy: B1 heavy with D235E, V266I, S269G, D270E, E274D, Q276K, D298Y
light: not shown
B3: IL6R-BP539/IL6R-L (antibody, human IgG1, kappa)
heavy: B1 heavy with D235E, V266I, S269G, D270E, E274P, Q276K
light: not shown
B4: IL6R-BP560/IL6R-L (antibody, human IgG1, kappa)
heavy: B1 heavy with D235E, D239G, S269G, D270E, Q276K
light: not shown
B5: IL6R-BP550/IL6R-L (antibody, human IgG1, kappa)
heavy: B1 heavy with D235E, V266I, S269G, D270E, E274D, Q276K
light: not shown
B6: IL6R-BP548/IL6R-L (antibody, human IgG1, kappa)
heavy: B1 heavy with Q276K, Q421E
light: not shown
B7: IL6R-BP562/IL6R-L (antibody, human IgG1, kappa)
heavy: B1 heavy with D235E, E274D, Q276K
light: not shown
B8: IL6R-BP567/IL6R-L (antibody, human IgG1, kappa)
heavy: B1 heavy with D239G, V266I, S269A, D270E, Q276K, R332A
light: not shown
B9: IL6R-BP533/IL6R-L (antibody, human IgG1, kappa)
heavy: B1 heavy with V266I, S269G, D270E, Q276K, P398L
light: not shown
B10: IL6R-BP559/IL6R-L (antibody, human IgG1, kappa)
heavy: B1 heavy with D235E, D239G, V266I, S269A, D270E, E274D, Q276K, R332A
light: not shown
B11: IL6R-BP549/IL6R-L (antibody, human IgG1, kappa)
heavy: B1 heavy with D235E, S269G, D270E, Q276K, D298Y
light: not shown
B12: IL6R-BP546/IL6R-L (antibody, human IgG1, kappa)
heavy: B1 heavy with Q276K, L360M
light: not shown
B13: IL6R-BP543/IL6R-L (antibody, human IgG1, kappa)
heavy: B1 heavy with D270Q, Q276K
light: not shown
B14: IL6R-BP568/IL6R-L (antibody, human IgG1, kappa)
heavy: B1 heavy with D239G, V266I, S269A, D270E, Q276K, D298Y, R332A
light: not shown
B15: IL6R-BP564/IL6R-L (antibody, human IgG1, kappa)
heavy: B1 heavy with D235E, D270E, E274D, Q276K
light: not shown
B16: IL6R-BP544/IL6R-L (antibody, human IgG1, kappa)
heavy: B1 heavy with Q276K, R357Q
light: not shown

What was measured:
[1] = target: T1, FcγRIIa type R extracellular domain …; test: ratio of SPR KDs vs IL6R-B3/IL6R-L
[2] = target: T2, FcγRIIb extracellular domain with …; test: ratio of SPR KDs vs IL6R-B3/IL6R-L
[3] = target: T3, FcγRIIa type H extracellular domain …; test: SPR
[4] = target: FcγRIIIa type V extracellular domain with C-terminal His tag (human, UniProt P08637 17-208); test: SPR
Sequence of FcγRIIIa type V extracellular domain with C-terminal His tag (P08637 17-208 F176V): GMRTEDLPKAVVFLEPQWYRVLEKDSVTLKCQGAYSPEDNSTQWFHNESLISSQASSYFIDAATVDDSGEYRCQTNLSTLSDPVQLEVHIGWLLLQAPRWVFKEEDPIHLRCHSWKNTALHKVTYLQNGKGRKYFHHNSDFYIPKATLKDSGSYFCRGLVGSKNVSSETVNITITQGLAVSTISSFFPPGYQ

[5] = target: T2, FcγRIIb extracellular domain with …; test: ratio of SPR KDs, FcγRIIaR over FcγRIIb, same variant
[6] = target: human FcγRIa extracellular domain with C-terminal His tag (human, UniProt P12314 16-292); test: SPR
Sequence of human FcγRIa extracellular domain with C-terminal His tag (P12314 16-292): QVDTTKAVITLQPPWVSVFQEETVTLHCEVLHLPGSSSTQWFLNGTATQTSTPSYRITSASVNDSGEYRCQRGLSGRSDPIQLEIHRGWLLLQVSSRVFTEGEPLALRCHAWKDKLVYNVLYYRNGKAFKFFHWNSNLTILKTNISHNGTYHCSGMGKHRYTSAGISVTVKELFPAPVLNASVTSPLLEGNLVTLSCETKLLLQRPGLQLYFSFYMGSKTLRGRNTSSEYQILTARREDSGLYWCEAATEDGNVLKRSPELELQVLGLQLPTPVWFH

[7] = target: human FcγRIIIa type V (Val158) extracellular domain with C-terminal His tag (human, UniProt P08637 17-208); test: SPR
Sequence of human FcγRIIIa type V (Val158) extracellular domain with C-terminal His tag (P08637 17-208 F176V): as the sequence (P08637 17-208 F176V) above

[8] = target: T4, human FcγRIIa type R (Arg131) …; test: SPR
[9] = target: T5, human FcγRIIb extracellular domain with …; test: SPR
[10] = target: T5, human FcγRIIb extracellular domain with …; test: SPR; remark: listed apart in the source
[11] = target: T6, human FcγRIIa type H (His131) …; test: SPR
[12] = target: T5, human FcγRIIb extracellular domain with …; test: SPR; remark: listed apart in the source
[13] = target: T4, human FcγRIIa type R (Arg131) …; test: SPR; remark: listed apart in the source
[14] = target: T5, human FcγRIIb extracellular domain with …; test: SPR; remark: listed apart in the source

Binder	KD (IIaR) of parent polypeptide/KD (IIaR) of altered polypeptide [1]	KD (IIb) of parent polypeptide/KD (IIb) of altered polypeptide [2]	Kd [3] [µM]	Kd [4] [µM]	KD (IIaR)/KD (IIb) [5]	Kd [7] [µM]	KD (IIaR) of parent polypeptide/KD (IIaR) of altered polypeptide [8]	KD (IIb) of parent polypeptide/KD (IIb) of altered polypeptide [9]	Kd [11] [µM]	other results
B1	2.4	190	9.3	41	27.8	–	–	–	–	–
B2	–	–	–	–	–	36	–	–	–	Kd [6]: 0.015 µM
B3	–	–	–	–	–	34	3.4	369	–	KD (IIaR)/KD (IIb) [10]: 38
B4	–	–	–	–	–	41	0.3	16.8	31	–
B5	–	–	–	–	–	48	3.3	406	–	KD (IIaH)/KD (IIb) [12]: 656
B6	2.2	162	9.4	34	26.2	–	–	–	–	–
B7	–	–	–	–	–	53	1.6	131	11	–
B8	–	–	–	–	–	39	1.2	225	17	KD (IIaH)/KD (IIb) [12]: 1230; KD (IIaR)/KD (IIb) [10]: 64.4; Kd [6]: 0.00021 µM; Kd [13]: 0.89 µM; Kd [14]: 0.014 µM
B9	–	–	–	–	–	27	–	756	–	KD (IIaR)/KD (IIb) [10]: 28.3
B10	–	–	–	–	–	44	0.7	110	20	–
B11	–	–	–	–	–	24	1.9	196	11	–
B12	2.2	205	10	37	32.8	–	–	–	–	–
B13	1.9	152	7.4	46	27.3	–	–	–	–	–
B14	–	–	–	–	–	25	1.6	211	11	KD (IIaH)/KD (IIb) [12]: 748; KD (IIaR)/KD (IIb) [10]: 46.1; Kd [6]: 0.00019 µM; Kd [13]: 0.68 µM; Kd [14]: 0.015 µM
B15	–	–	–	–	–	49	1.9	141	10	–
B16	2.2	184	12	45	28.8	–	–	–	–	–
